System: rabbit eyes
Test: Distribution of Avastin in sectioned rabbit eyes by fluorescence and DIC microscopy, after intravitreal injection or sonophoresis from a hydrogel
Format: in vivo
Excerpt: As described above, the delivery system or device can be used to deliver molecules and/or nanoparticles to the eye of a patient. Once delivered to the surface of the eye, the molecules and/or nanoparticles can penetrate the outer surface of the eye and diffuse to the posterior parts of the eye. For example, FIGS. 14 to 19 are optical microscope images of sectioned rabbit eyes imaged by Differential Interference Contrast (DIC) phase contrast imaging and fluorescence imaging, illustrating the distribution of the monoclonal antibody Avastin to various parts of the eye. Each of these six Figures includes two panels, comprising a left-hand panel showing a fluorescence image, and a right-hand panel showing a white light DIC phase contrast image. FIGS. 14 to 16 illustrate the distribution of Avastin delivered by intravitreal injection, whereas FIGS. 17 to 19 show the distribution of Avastin delivered from a hydrogel by sonophoresis of five minute duration. The red colour in the fluorescence images indicates a secondary antibody bound to Avastin. Consequently, the red colour indicates the location of Avastin in the tissues of the eye.
The vitreous humor is not visible in the “white-light” DIC images because the sections are mounted on the slides using a 90% glycerol solution in order to stabilise the cover slip and the section during the confocal microscopy. The glycerol has a similar refractive index to the vitreous humor.

Avastin: the monoclonal antibody Avastin
presence of Avastin in vitreous humor (staining) (rabbit eye (LE), Sonoactuator: hydrogel, sonophoresis of five minute duration): not visibly stained | presence of Avastin in vitreous (red staining) (rabbit eye (RE), intravitreal injection): abundant presence | staining of ciliary body for Avastin (rabbit eye, delivery from the gel with ultrasound): does not stain well | staining of ciliary body and iris for Avastin (rabbit eye, intravitreal injection): heavily stained | delivery of Avastin to choroid and retina (rabbit eye, non-invasive delivery from hydrogel under ultrasonic stimulation (FIGS. 17 to 19)): non-invasively delivered to the choroid and retina

From patent US20200139098A1, “DELIVERY SYSTEM AND PROCESS” (POLYPHARMA PTY LTD, priority 2006, published 2020)
